Data reported in patent publication US20060263381A1 (INSTITUT GUSTAVE ROUSSY, published 2006).
Where two headings read alike, the source gives them in different places.

Legend:
[1] = molecular target: T1, HLA-A*0201 molecule (human); experiment: T2 cells loaded with 100 µM peptide, Brefeldin A, flow cytometry with BB7.2 at 0-8 h
T1 construct: MHC class I molecule on T2 cells, to which the test peptides are added from outside

[2] = molecular target: T1, HLA-A*0201 molecule; experiment: T2 cell HLA-A*0201 stabilisation, flow cytometry with BB7.2
Experimental: (§1) The cells are then analyzed by flow cytometry. […] The mean RA for each peptide is determined from at least three independent experiments. In all the experiments, 20& of the maximum fluorescence was obtained for 1 to 3 μM of the reference peptide.

[3] = molecular target: T1, HLA-A*0201 molecule; experiment: as above; remark: listed apart in the source
Experimental: as §1

B1: p248G9 (YLEYRQVPG) (peptide)
peptide: YLEYRQVPG
notes: Native peptide of MAGE-A2, -A3, -A4, -A6, -A10, -A12
In the case of B1, the “DC50 (time for loss of 50% of the complexes)” value [1] is reported as under 2 h and the “RA (relative affinity)” value [2] is reported as > 27 ratio to reference peptide HIVpol 589.

B2: p248D9 (YLEYRQVPD) (peptide)
peptide: YLEYRQVPD
notes: Native peptide of MAGE-A1
B2 was tested, and the “DC50 (time for loss of 50% of the complexes)” value [1] was under 2 h and the “RA (relative affinity)” value [2] was 22.5 ratio to reference peptide HIVpol 589.

B3: p248V9 (YLEYRQVPV) (peptide)
peptide: YLEYRQVPV
notes: Variant of p248G9 and p248D9 with valine at P9
For B3, the “DC50 (time for loss of 50% of the complexes)” value [1] was 4 h and the “RA (relative affinity)” value [2] was 1.8 ratio to reference peptide HIVpol 589.

B4: p262L2 (YLFLWGPRA) (peptide)
peptide: YLFLWGPRA
notes: Variant of p262 with leucine at P2
B4 was tested, and the “DC50 (time for loss of 50% of the complexes)” value [1] was 6 h and the “RA (relative affinity)” value [2] was 0.2 ratio to reference peptide HIVpol 589.

B5: p174Y1 (YLGLSYDGLL) (peptide)
peptide: YLGLSYDGLL
notes: Variant of p174 with tyrosine at P1
With B5 the “DC50 (time for loss of 50% of the complexes)” value [1] was under 2 h and the “RA (relative affinity)” value [2] was 13 ratio to reference peptide HIVpol 589.

B6: p174 (CLGLSYDGLL) (peptide)
peptide: CLGLSYDGLL
notes: Native peptide of MAGE-A1, -A2, -A3, -A4, -A6, -A12; It is named by the position of its first residue in MAGE-A1
In the case of B6, the “DC50 (time for loss of 50% of the complexes)” value [1] is reported as under 2 h and the “RA (relative affinity)” value [2] is reported as 41 ratio to reference peptide HIVpol 589.

B7: p174Y1V10 (YLGLSYDGLV) (peptide)
peptide: YLGLSYDGLV
notes: Variant of p174 with tyrosine at P1 and valine at P10
With B7 the “DC50 (time for loss of 50% of the complexes)” value [1] was under 2 h and the “RA (relative affinity)” value [2] was 2.5 ratio to reference peptide HIVpol 589.

B8: p911Y1V9 (YVWELMTFGV) (peptide)
peptide: YVWELMTFGV
notes: It is a 10-mer, although the label says V9
For B8, the “RA (relative affinity)” value [3] was 2.03 ratio to reference peptide HIVpol 589.
